In US20260167699A1 (Chugai, published 2026):
Residue numbers refer to the chain shown, from its start.

T1: FcγRIIb (human, UniProt P31994 43-217)
T1 construct: extracellular domain; also called 2b
T1 sequence: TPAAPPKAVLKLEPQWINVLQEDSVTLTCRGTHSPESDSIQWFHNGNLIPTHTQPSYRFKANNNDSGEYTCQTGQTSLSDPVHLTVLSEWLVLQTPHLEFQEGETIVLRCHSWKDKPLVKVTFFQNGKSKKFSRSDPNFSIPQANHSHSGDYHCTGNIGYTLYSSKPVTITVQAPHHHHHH

T2: FcγRIIa(R) (human, UniProt P12318 34-217)
T2 construct: extracellular domain; also called FcγRIIa R type; 2aR
T2 sequence: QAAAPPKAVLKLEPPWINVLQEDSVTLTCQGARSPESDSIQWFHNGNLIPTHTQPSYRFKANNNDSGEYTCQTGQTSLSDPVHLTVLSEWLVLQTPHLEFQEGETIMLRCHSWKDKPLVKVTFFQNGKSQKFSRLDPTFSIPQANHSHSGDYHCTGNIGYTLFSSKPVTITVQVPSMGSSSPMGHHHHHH

T3: FcγRIIa(H) (human, UniProt P12318 34-217)
T3 construct: extracellular domain; also called FcγRIIa H type; 2aH
T3 sequence: T2 sequence with R134H

B1: GpH7-A5/GpH7-B3 variant E269_01G/GpL16-k0 (antibody, human IgG1, kappa)
heavy 1: not shown
heavy 2: not shown
light: DIVMTQSPLSLPVTPGEPASISCQASESLVHSNRNTYLHWYLQKPGQSPQLLIYKVSNRFSGVPDRFSGSGSGTDFTLKISRVEAEDVGVYYCSQNTHVPPTFGQGTKVEIERTVAAPSVFIFPPSDEQLKSGTASVVCLLNNFYPREAKVQWKVDNALQSGNSQESVTEQDSKDSTYSLSSTLTLSKADYEKHKVYACEVTHQGLSSPVTKSFNRGEC
notes: heterodimerized IgG1, one H chain mutated; also called He Ab
B2: GpH7-A5/GpH7-B3 variant L234_04F/GpL16-k0 (antibody, human IgG1, kappa)
heavy 1: not shown
heavy 2: not shown
light: B1 light
notes: as for B1
B3: GpH7-A5/GpH7-B3 variant G236_10E/GpL16-k0 (antibody, human IgG1, kappa)
heavy 1: not shown
heavy 2: not shown
light: B1 light
notes: as for B1
B4: GpH7-A5/GpH7-B3 variant L234_09D/GpL16-k0 (antibody, human IgG1, kappa)
heavy 1: not shown
heavy 2: not shown
light: B1 light
notes: as for B1
B5: GpH7-A5/GpH7-B3 variant H268_03V/GpL16-k0 (antibody, human IgG1, kappa)
heavy 1: not shown
heavy 2: not shown
light: B1 light
notes: as for B1
B6: GpH7-A5/GpH7-B3 variant H268_10E/GpL16-k0 (antibody, human IgG1, kappa)
heavy 1: not shown
heavy 2: not shown
light: B1 light
notes: as for B1
B7: GpH7-A5/GpH7-B3 variant H268_11K/GpL16-k0 (antibody, human IgG1, kappa)
heavy 1: not shown
heavy 2: not shown
light: B1 light
notes: as for B1
B8: GpH7-A5/GpH7-B3 variant G236_20W/GpL16-k0 (antibody, human IgG1, kappa)
heavy 1: not shown
heavy 2: not shown
light: B1 light
notes: as for B1
B9: GpH7-A5/GpH7-B3 variant L234_03V/GpL16-k0 (antibody, human IgG1, kappa)
heavy 1: not shown
heavy 2: not shown
light: B1 light
notes: as for B1
B10: GpH7-A5/GpH7-B3 variant L234_10E/GpL16-k0 (antibody, human IgG1, kappa)
heavy 1: not shown
heavy 2: not shown
light: B1 light
notes: as for B1
B11: GpH7-A5/GpH7-B3 variant L234_02A/GpL16-k0 (antibody, human IgG1, kappa)
heavy 1: not shown
heavy 2: not shown
light: B1 light
notes: as for B1
B12: GpH7-A5/GpH7-B3 variant H268_14T/GpL16-k0 (antibody, human IgG1, kappa)
heavy 1: not shown
heavy 2: not shown
light: B1 light
notes: as for B1
B13: GpH7-A5/GpH7-B3 variant E269_14T/GpL16-k0 (antibody, human IgG1, kappa)
heavy 1: not shown
heavy 2: not shown
light: B1 light
notes: as for B1
B14: GpH7-A5/GpH7-B3 variant L234_01G/GpL16-k0 (antibody, human IgG1, kappa)
heavy 1: not shown
heavy 2: not shown
light: B1 light
notes: as for B1
B15: GpH7-A5/GpH7-B3 variant H268_20W/GpL16-k0 (antibody, human IgG1, kappa)
heavy 1: not shown
heavy 2: not shown
light: B1 light
notes: as for B1
B16: GpH7-A5/GpH7-B3 variant H268_12R/GpL16-k0 (antibody, human IgG1, kappa)
heavy 1: not shown
heavy 2: not shown
light: B1 light
notes: as for B1
B17: GpH7-A5/GpH7-B3 variant H268_09D/GpL16-k0 (antibody, human IgG1, kappa)
heavy 1: not shown
heavy 2: not shown
light: B1 light
notes: as for B1
B18: GpH7-A5/GpH7-B3 variant E269_02A/GpL16-k0 (antibody, human IgG1, kappa)
heavy 1: not shown
heavy 2: not shown
light: B1 light
notes: as for B1
B19: GpH7-A5/GpH7-B3 variant L234_05P/GpL16-k0 (antibody, human IgG1, kappa)
heavy 1: not shown
heavy 2: not shown
light: B1 light
notes: as for B1
B20: GpH7-A5/GpH7-B3 variant E269_13S/GpL16-k0 (antibody, human IgG1, kappa)
heavy 1: not shown
heavy 2: not shown
light: B1 light
notes: as for B1
B21: GpH7-A5/GpH7-B3 variant L234_07I/GpL16-k0 (antibody, human IgG1, kappa)
heavy 1: not shown
heavy 2: not shown
light: B1 light
notes: as for B1
B22: GpH7-A5/GpH7-B3 variant H268_19Q/GpL16-k0 (antibody, human IgG1, kappa)
heavy 1: not shown
heavy 2: not shown
light: B1 light
notes: as for B1
B23: GpH7-A5/GpH7-B3 variant G236_09D/GpL16-k0 (antibody, human IgG1, kappa)
heavy 1: not shown
heavy 2: not shown
light: B1 light
notes: as for B1
B24: GpH7-A5/GpH7-B3 variant H268_02A/GpL16-k0 (antibody, human IgG1, kappa)
heavy 1: not shown
heavy 2: not shown
light: B1 light
notes: as for B1
B25: GpH7-A5/GpH7-B3 variant H268_15Y/GpL16-k0 (antibody, human IgG1, kappa)
heavy 1: not shown
heavy 2: not shown
light: B1 light
notes: as for B1
B26: GpH7-A5/GpH7-B3 variant H268_07I/GpL16-k0 (antibody, human IgG1, kappa)
heavy 1: not shown
heavy 2: not shown
light: B1 light
notes: as for B1
B27: GpH7-A5/GpH7-B3 variant H268_04F/GpL16-k0 (antibody, human IgG1, kappa)
heavy 1: not shown
heavy 2: not shown
light: B1 light
notes: as for B1
B28: GpH7-A5/GpH7-B3 variant H268_13S/GpL16-k0 (antibody, human IgG1, kappa)
heavy 1: not shown
heavy 2: not shown
light: B1 light
notes: as for B1
B29: GpH7-A5/GpH7-B3 variant H268_01G/GpL16-k0 (antibody, human IgG1, kappa)
heavy 1: not shown
heavy 2: not shown
light: B1 light
notes: as for B1
B30: GpH7-A5/GpH7-B3 variant H268_08L/GpL16-k0 (antibody, human IgG1, kappa)
heavy 1: not shown
heavy 2: not shown
light: B1 light
notes: as for B1
B31: GpH7-A5/GpH7-B3 variant H268_06M/GpL16-k0 (antibody, human IgG1, kappa)
heavy 1: not shown
heavy 2: not shown
light: B1 light
notes: as for B1
B32: GpH7-A5/GpH7-B3 variant L234_06M/GpL16-k0 (antibody, human IgG1, kappa)
heavy 1: not shown
heavy 2: not shown
light: B1 light
notes: as for B1
B33: GpH7-A5/GpH7-B3 variant G236_02A/GpL16-k0 (antibody, human IgG1, kappa)
heavy 1: not shown
heavy 2: not shown
light: B1 light
notes: as for B1
B34: GpH7-A5/GpH7-B3 variant E269_09D/GpL16-k0 (antibody, human IgG1, kappa)
heavy 1: not shown
heavy 2: not shown
light: B1 light
notes: as for B1
B35: GpH7-A5/GpH7-B3 variant H268_18N/GpL16-k0 (antibody, human IgG1, kappa)
heavy 1: not shown
heavy 2: not shown
light: B1 light
notes: as for B1

biological target: T1, FcγRIIb; experiment: SPR (Biacore), binding relative to GpH7-A5/GpH7-B3/GpL16-k0 x100;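 also: surface plasmon resonance at 25 °C, antibody captured on a sensor chip and soluble FcγR flowed over it in HBS-EP+ running buffer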
Experimental: (§1) The antibody of interest was analyzed for its interaction with FcγR using a BiaCore™ T100, BiaCore™ A100, or BiaCore™ 4000 surface plasmon resonance system (GE Healthcare Japan Corp.). The running buffer used was HBS-EP+ (GE Healthcare Japan Corp.). The assay temperature was set to 25° C. The sensor chips used were: a chip prepared by immobilizing antigenic peptides onto Series S Sensor Chip CM5 (GE Healthcare Japan Corp.) by the amine coupling method; a chip prepared by immobilizing antigenic peptides biotinylated in advance onto Series S Sensor Chip SA (certified) (GE Healthcare Japan Corp.) through their interaction; a chip prepared by immobilizing protein L (ACTIGEN, BioVision, Inc.) onto Series S Sensor Chip CM5 (GE Healthcare Japan Corp.); and a chip prepared by immobilizing protein A/G (Thermo Fisher Scientific K.K.) onto Series S Sensor Chip CM5 (GE Healthcare Japan Corp.). The antibody of interest was captured onto any of these chips and allowed to interact with FcγR diluted with a running buffer. The antibody captured on the chip was washed off through the reaction of 10 mM glycine-HCl (pH 1.5) to regenerate the chip, which was repetitively used.

| He/Con 2b | Binder |
| --- | --- |
| 54.1% | B1 |
| 114% | B2 |
| 115% | B3 |
| 172% | B4 |
| 120% | B5 |
| 242% | B6 |
| 87.2% | B7 |
| 60.7% | B8 |
| 83.4% | B9 |
| 134% | B10 |
| 74.1% | B11 |
| 90.3% | B12 |
| 53.2% | B13 |
| 57.8% | B14 |
| 117% | B15 |
| 94.3% | B16 |
| 251% | B17 |
| 52.4% | B18 |

| He/Con 2b | Binder |
| --- | --- |
| 83.2% | B19 |
| 50.2% | B20 |
| 92.3% | B21 |
| 140% | B22 |
| 174% | B23 |
| 175% | B24 |
| 112% | B25 |
| 93.4% | B26 |
| 94.2% | B27 |
| 168% | B28 |
| 151% | B29 |
| 71.2% | B30 |
| 69% | B31 |
| 89.6% | B32 |
| 101% | B33 |
| 110% | B34 |
| 164% | B35 |

biological target: T2, FcγRIIa(R); experiment: as above
Experimental: as §1

| He/Con 2aR | Binder |
| --- | --- |
| 70.3% | B1 |
| 121% | B2 |
| 124% | B3 |
| 142% | B4 |
| 117% | B5 |
| 159% | B6 |
| 108% | B7 |
| 77.3% | B8 |
| 99% | B9 |
| 130% | B10 |
| 92.5% | B11 |
| 100% | B12 |
| 71% | B13 |
| 72.4% | B14 |
| 122% | B15 |
| 113% | B16 |
| 161% | B17 |
| 70.2% | B18 |

| He/Con 2aR | Binder |
| --- | --- |
| 104% | B19 |
| 65.8% | B20 |
| 110% | B21 |
| 128% | B22 |
| 105% | B23 |
| 143% | B24 |
| 118% | B25 |
| 102% | B26 |
| 105% | B27 |
| 137% | B28 |
| 134% | B29 |
| 91.4% | B30 |
| 67.2% | B31 |
| 109% | B32 |
| 145% | B33 |
| 113% | B34 |
| 138% | B35 |

biological target: T4, FcγRIa (human, UniProt P12314 16-292); experiment: as above
T4 construct: extracellular domain; also called 1a
T4 sequence (P12314 other isoform, or with tags, fused parts or gaps): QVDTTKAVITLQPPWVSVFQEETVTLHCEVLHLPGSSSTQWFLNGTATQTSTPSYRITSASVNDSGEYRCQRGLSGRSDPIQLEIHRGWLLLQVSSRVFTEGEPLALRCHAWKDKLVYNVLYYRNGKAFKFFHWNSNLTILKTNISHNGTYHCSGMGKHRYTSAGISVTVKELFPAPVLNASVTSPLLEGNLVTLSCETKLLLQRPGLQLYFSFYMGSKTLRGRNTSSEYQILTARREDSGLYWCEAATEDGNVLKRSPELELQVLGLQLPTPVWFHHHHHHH
Experimental: as §1

| He/Con 1a | Binder |
| --- | --- |
| 101% | B1 |
| 104% | B2 |
| 92.6% | B3 |
| 101% | B4 |
| 103% | B5 |
| 107% | B6 |
| 102% | B7 |
| 104% | B8 |
| 108% | B9 |
| 104% | B10 |
| 101% | B11 |
| 108% | B12 |
| 102% | B13 |
| 99.2% | B14 |
| 103% | B15 |
| 103% | B16 |
| 106% | B17 |
| 101% | B18 |

| He/Con 1a | Binder |
| --- | --- |
| 103% | B19 |
| 99.8% | B20 |
| 106% | B21 |
| 104% | B22 |
| 95.5% | B23 |
| 105% | B24 |
| 104% | B25 |
| 104% | B26 |
| 103% | B27 |
| 106% | B28 |
| 104% | B29 |
| 104% | B30 |
| 101% | B31 |
| 107% | B32 |
| 99.1% | B33 |
| 103% | B34 |
| 104% | B35 |

biological target: T3, FcγRIIa(H); experiment: as above
Experimental: as §1

| He/Con 2aH | Binder |
| --- | --- |
| 72.3% | B1 |
| 133% | B2 |
| 116% | B3 |
| 100% | B4 |
| 100% | B5 |
| 126% | B6 |
| 89.8% | B7 |
| 153% | B8 |
| 94.4% | B9 |
| 98.2% | B10 |
| 90.1% | B11 |
| 93.5% | B12 |
| 70.3% | B13 |
| 84.1% | B14 |
| 96.9% | B15 |
| 90.9% | B16 |
| 134% | B17 |
| 78.7% | B18 |

| He/Con 2aH | Binder |
| --- | --- |
| 104% | B19 |
| 70.7% | B20 |
| 101% | B21 |
| 104% | B22 |
| 93.5% | B23 |
| 115% | B24 |
| 113% | B25 |
| 91.2% | B26 |
| 112% | B27 |
| 114% | B28 |
| 100% | B29 |
| 85.9% | B30 |
| 85.8% | B31 |
| 96.4% | B32 |
| 145% | B33 |
| 105% | B34 |
| 113% | B35 |
